Reference: patent publication US20250282860A1 (SUZHOU FORLONG BIOTECHNOLOGY, published 2025)
Substitutions are numbered along the chain they refer to. In names and notes the source's numbering stands.

B1: IL-2 mutant 21-C1 (ligand)
chain: APTSSSTKKTQLQLEHLLLDLQMILNGINNYKNPLLTDMLTLHFYMPKKATELKHLQCLEEELKPLEEVLNFAQSKNFHLRPRDLISNINVIVLELKGSETTFMCEYADETATIVEFLNRWITFCQSIISTLT
notes: Expressed in Expi293; also called 1.21-C1
B2: IL-2 mutant 22-A4 (ligand)
chain: B1 chain with L35G, L42I, H43Q, Y45F
notes: Expressed in Expi293; also called 4.22-A4
B3: IL-2 mutant 21-F10 (ligand)
chain: B1 chain with L35E, L42F, H43K, F72A
notes: Expressed in Expi293; also called 3.21-F10
B4: IL-2 mutant 24-C2 (ligand)
chain: B1 chain with L35D, D38E, L42F, H43K, F72S
notes: Expressed in Expi293; also called 11.24-C2
B5: IL-2 mutant 22-B2 (ligand)
chain: B1 chain with L35S, H43Q
notes: Expressed in Expi293; also called 5.22-B2
B6: IL-2 mutant 23-C8 (ligand)
chain: B1 chain with L35G, L42F, H43N
notes: Expressed in Expi293; also called 9.23-C8
B7: IL-2 mutant 23-H9 (ligand)
chain: B1 chain with L35G, L42Y, H43S, Y45D, F72L
notes: Expressed in Expi293; also called 10.23-H9
B8: IL-2 mutant 24-C6 (ligand)
chain: B1 chain with L35E, D38E, L42F, H43K, F72A
notes: Expressed in Expi293; also called 12.24-C6
B9: IL-2 mutant 24-E4 (ligand)
chain: B1 chain with L35D, L42F, H43K, F72A
notes: Expressed in Expi293; also called 14.24-E4
B10: IL-2 mutant 22-E8 (ligand)
chain: B1 chain with L35D, D38E, L42F, H43K, F72Q
notes: Expressed in Expi293; also called 7.22-E8
B11: IL-2 mutant 21-F9 (ligand)
chain: B1 chain with L35M, L42V, H43G, Y45F
notes: Expressed in Expi293; also called 2.21-F9
B12: IL-2 mutant 22-D11 (ligand)
chain: B1 chain with L35D, H43R, Y45F
notes: Expressed in Expi293; also called 6.22-D11
B13: IL-2 mutant 24-D2 (ligand)
chain: B1 chain with L35E, L42F, H43K, F72G
notes: Expressed in Expi293; also called 13.24-D2
B14: IL-2 mutant 22-E8-C125A (ligand)
chain: B1 chain with L35D, D38E, L42F, H43K, F72Q, C125A
B15: IL-2 mutant 24-D2-C125A (ligand)
chain: B1 chain with L35E, L42F, H43K, F72G, C125A
B16: IL-2 mutant 21-F10-C125A (ligand)
chain: B1 chain with L35E, L42F, H43K, F72A, C125A
B17: IL-2 mutant 24-C2-C125A (ligand)
chain: B1 chain with L35D, D38E, L42F, H43K, F72S, C125A
B18: IL-2 mutant 24-E4-C125A (ligand)
chain: B1 chain with L35D, L42F, H43K, F72A, C125A
B19: IL-2 mutant 23-C8-C125A (ligand)
chain: B1 chain with L35G, L42F, H43N, C125A

target: T1, IL-2 receptor α (UniProt P01589 22-213, limits assumed); test: BLI, AHC probes
T1 construct: BLI used Anti-human IgG Fc Capture (AHC) probes with the IL-2 mutant diluted as analyte; also called IL-2Rα; CD25
T1 sequence (looked up): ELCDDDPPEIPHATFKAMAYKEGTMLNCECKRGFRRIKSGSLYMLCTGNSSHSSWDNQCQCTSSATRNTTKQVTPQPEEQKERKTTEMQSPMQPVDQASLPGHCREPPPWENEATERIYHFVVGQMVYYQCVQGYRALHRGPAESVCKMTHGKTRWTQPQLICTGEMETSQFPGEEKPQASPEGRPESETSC

Row | Binder | binding result
1 | B1 | no binding (tested: 100 nM highest concentration)
2 | B2 | no binding (tested: 100 nM highest concentration)
3 | B3 | no binding (tested: 100 nM highest concentration)
4 | B4 | no binding (tested: 100 nM highest concentration)
5 | B5 | no binding (tested: 100 nM highest concentration)
6 | B6 | no binding (tested: 100 nM highest concentration)
7 | B7 | no binding (tested: 100 nM highest concentration)
8 | B8 | no binding (tested: 100 nM highest concentration)
9 | B9 | no binding (tested: 100 nM highest concentration)
10 | B10 | no binding (tested: 100 nM highest concentration)
11 | B11 | no binding (tested: 100 nM highest concentration)
12 | B12 | no binding (tested: 100 nM highest concentration)
13 | B13 | no binding (tested: 100 nM highest concentration)

target: T2, IL-2 receptor β (UniProt P14784 27-239, limits assumed); test: BLI, AHC probes, IL-2 diluted 3-fold from 1000 nM to 12.35 nM
T2 construct: BLI used Anti-human IgG Fc Capture (AHC) probes with the IL-2 mutant diluted as analyte; also called IL-2Rβ; CD122
T2 sequence (looked up): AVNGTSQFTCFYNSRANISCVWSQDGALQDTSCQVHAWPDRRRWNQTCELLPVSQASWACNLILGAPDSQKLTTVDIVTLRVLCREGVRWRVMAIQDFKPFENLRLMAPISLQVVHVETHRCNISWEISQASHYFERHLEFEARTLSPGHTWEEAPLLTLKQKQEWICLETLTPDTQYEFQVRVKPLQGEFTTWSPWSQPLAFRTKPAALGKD

Row | Binder | Kd [nM]
14 | B11 | 50

target: T1, IL-2 receptor α; test: BLI with AHC probes; C125A protein in 3-fold dilutions from 100 nM to 1.23 nM

Row | Binder | binding result
15 | B14 | no binding (tested: 100 nM)
16 | B15 | no binding (tested: 100 nM)
17 | B16 | no binding (tested: 100 nM)
18 | B17 | no binding (tested: 100 nM)
19 | B18 | no binding (tested: 100 nM)
20 | B19 | no binding (tested: 100 nM)
